Results on 33 molecules are retold here after patent US20260151494A1 (ARO BIOTHERAPEUTICS, published 2026).

In assay [1] the target is T1, human CD71 extracellular domain (CD71-ECD) (human, UniProt P02786 89-760).
T1 construct: also called hCD71; human CD71-ECD
Briefly: primary ELISA. (In an ELISA, binding on a coated surface is turned into a signal by an enzyme label.)

Assay [2] concerns the target T1, human CD71 extracellular domain …. Briefly: primary ELISA, RLU ratio to HSA.
Throughout, for RLU: test concentration or dose not given here.

T1 sequence (P02786 89-760): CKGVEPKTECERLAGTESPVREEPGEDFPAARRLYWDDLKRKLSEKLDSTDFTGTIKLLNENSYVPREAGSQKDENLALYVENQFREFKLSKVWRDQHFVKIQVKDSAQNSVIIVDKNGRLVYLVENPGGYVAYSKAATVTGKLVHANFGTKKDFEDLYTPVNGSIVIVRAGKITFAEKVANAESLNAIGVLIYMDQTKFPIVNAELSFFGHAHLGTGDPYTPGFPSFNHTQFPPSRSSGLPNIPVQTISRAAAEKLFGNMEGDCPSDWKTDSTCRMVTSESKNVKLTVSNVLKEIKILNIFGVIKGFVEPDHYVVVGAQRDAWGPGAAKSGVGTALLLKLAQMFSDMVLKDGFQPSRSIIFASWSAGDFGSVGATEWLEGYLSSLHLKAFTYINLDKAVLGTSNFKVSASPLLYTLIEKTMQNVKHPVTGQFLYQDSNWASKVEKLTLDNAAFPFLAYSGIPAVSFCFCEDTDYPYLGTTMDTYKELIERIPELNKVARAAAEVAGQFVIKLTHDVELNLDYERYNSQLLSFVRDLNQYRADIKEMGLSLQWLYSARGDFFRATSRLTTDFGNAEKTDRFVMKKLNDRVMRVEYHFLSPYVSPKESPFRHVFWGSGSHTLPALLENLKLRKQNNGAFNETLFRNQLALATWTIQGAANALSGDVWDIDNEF

B1: CD71-binding FN3 domain SEQ ID NO: 249 (designed binder)
chain: MSLPAPKNLVVSRVTEDSARLSWTAPDAAFDSFEIGYWENAYRGEAIVLTVPGSERSYDLTGLKPGTEYVVFIGGVKGGVWSVPLSAIFTT
B1 displayed an RLU in assay [1] of 3.02e+06 RLU. For the same molecule, in assay [2], the “hCD71:HSA” value is 350.

B2: CD71-binding FN3 domain SEQ ID NO: 269 (designed binder)
chain: MSLPAPKNLVVSRVTEDSARLSWTAPDAAFDSFEIGYFENDYFGEAIVLTVPGSERSYDLTGLKPGTEYVVFIGGVKGGNWSAPLSAIFTT
Molecule B2 displayed an RLU in assay [1] of 4.35e+06 RLU. Moreover, the “hCD71:HSA” value in assay [2] worked out at 348.

B3: CD71-binding FN3 domain SEQ ID NO: 271 (designed binder)
chain: MSLPAPKNLVVSRITEDSARLSWTAPDAAFDSFEIGYWENAYKGEAIVLTVPGSERSYDLTGLKPGTEYVVFIGGVKGGVWSVPLSAIFTT
In turn, B3 yielded an RLU in assay [1] of 2.57e+06 RLU. Besides, the “hCD71:HSA” value in assay [2] is 180.

B4: CD71-binding FN3 domain SEQ ID NO: 283 (designed binder)
chain: MSLPAPKNLVVSRVTEDSARLSWTAPDAAFDSFEIAYQELSLWGEAIVLTVPGSERSYDLTGLKPGTEYYVHIGGVKGGIWSSPLSAYSTT
In assay [1], B4 returned an RLU of 2.07e+06 RLU. Besides, the “hCD71:HSA” value in assay [2] worked out at 77.

B5: CD71-binding FN3 domain SEQ ID NO: 255 (designed binder)
chain: MSLPAPKNLVVSRVTEDSARLSWTTPDAAFDSFEIAYFEIAWLGEAIVLTVPGSERSYDLTGLKPGTEYWVQIGGVKGGAYSTPLSAIFTT
With B5, in assay [1], the RLU came out at 3.73e+06 RLU. Further, the “hCD71:HSA” value in assay [2] was determined as 90.

B6: CD71-binding FN3 domain SEQ ID NO: 278 (designed binder)
chain: MSLPAPKNLVVSRVTEDSARLSWTAPDAAFDSFEIGYFENLYLGEAIVLTVPGSERSHDLTGLKPGTEYWVQIGGVKGGNWSAPLSAIFTT
Take B6: the RLU in assay [1] was found to be 3.46e+06 RLU. Also, the “hCD71:HSA” value in assay [2] turned out to be 435.

B7: CD71-binding FN3 domain SEQ ID NO: 292 (designed binder)
chain: MSLPAPKNLVVSRVTEDSARLSWTAPDAAFDSFEIGYWENAYKGEAIVLTVPGSERSYDLTGLKPGTEYVVFIGGVKGGVWSVSLSAIFTT
B7 had an RLU in assay [1] of 4.33e+06 RLU. Further, the “hCD71:HSA” value in assay [2] is 291.

B8: CD71-binding FN3 domain SEQ ID NO: 251 (designed binder)
chain: MSLPAPKNLVVSRVTEDSARLSWTAPDAAFDSFEIGYFENLYLGEAIVLTVPGSERSYDLTGLKPGTEYWVQIGGVKGGNWSAPLVATFTT
In assay [1], B8 gave an RLU of 4.09e+06 RLU. Also, in assay [2], the “hCD71:HSA” value is 724.

B9: CD71-binding FN3 domain SEQ ID NO: 256 (designed binder)
chain: MSLPVPKNLVVSRVTEDSARLSWTAPDAAFDSFEIGYFENLYLGEAIVLTVPGSERSYDLTGLKPGTEYWVQIGGVKGGNWSAPLSAIFTT
As for B9, in assay [1], the RLU came to 2.39e+06 RLU. Further, the “hCD71:HSA” value in assay [2] was 193.

B10: CD71-binding FN3 domain SEQ ID NO: 282 (designed binder)
chain: MSLPAPKNLVVSRVTEDSARLSWTAPDAAFDSFDIGYFELTWYGEAIVLTVPGSERSYDLTGLKPGTEYWVSIGGVKGGRFSEPLYARFTT
B10 showed an RLU in assay [1] of 3.2e+06 RLU. Also, in assay [2], the “hCD71:HSA” value is 240.

B11: CD71-binding FN3 domain SEQ ID NO: 300 (designed binder)
chain: MSLPAPKNLVVSRVTEDSARLSWTAPDAAFDSFEIGYFEATPNGEAIVLTVPGSERSYDLTGLKPGTEYKVFIGGVKGGRWSKPLSAIFTT
For the molecule B11, the RLU in assay [1] was 3.88e+06 RLU. In addition, the “hCD71:HSA” value in assay [2] worked out at 284.

B12: CD71-binding FN3 domain SEQ ID NO: 304 (designed binder)
chain: MSLPAPKNLVVSRVTEDSARLSWTAPDAAFDSFEIGYFENLYLGEAIVLTVPGSERSYDLTGLKPGTEYVVFIGGVKGGVWSVPLSAIFTT
On to B12, for which the RLU in assay [1] was found to be 3.39e+06 RLU. Besides, the “hCD71:HSA” value in assay [2] worked out at 274.

B13: CD71-binding FN3 domain SEQ ID NO: 280 (designed binder)
chain: MSLPAPKNLVVSRVTEDSARLSWTALDAAFDSFEIGYFENLYLGEAIVLTVPGSERSYDLTGLKPGTEYWVQIGGVKGGNWSAPLSAIFTT
In turn, B13 returned an RLU in assay [1] of 3.21e+06 RLU. In assay [2], the “hCD71:HSA” value was 103.

B14: CD71-binding FN3 domain SEQ ID NO: 276 (designed binder)
chain: MSLPAPKNLVVSRVTEDSARLSWTAPDAAFDSFEIAYFELDYVGEAIVLTVPGSERSYDLTGLKPGTEYWVQIGGVKGGTWSGPLSAIFTI
The molecule B14 registered an RLU in assay [1] of 3.13e+06 RLU. The “hCD71:HSA” value in assay [2] was found to be 62.

B15: CD71-binding FN3 domain SEQ ID NO: 285 (designed binder)
chain: MSLPAPKNLVVSRVTEDSARLSWTATDAAFDSFEIGYWENAYKGEAIVLTVPGSERSYDLTGLKPGTEYVVFIGGVKGGVWSVPLSAIFTT
On to B15, for which, in assay [1], the RLU is 2.81e+06 RLU. In addition, the “hCD71:HSA” value in assay [2] amounted to 201.

B16: CD71-binding FN3 domain SEQ ID NO: 277 (designed binder)
chain: MSLPAPKNLVVSRVTEDSARLSWTAPDAAFDSFEIGYFELTYYGEAIVLTVPGSERSYDLTGLKPGTEYWVQIGGVKGGGFSEPLSAIFTT
In assay [1], B16 registered an RLU of 4.13e+06 RLU. In addition, in assay [2], the “hCD71:HSA” value came to 276.

B17: CD71-binding FN3 domain SEQ ID NO: 297 (designed binder)
chain: MSLPAPKNLVVSRVTEDSARLSWTAPDAAFDSFEISYFENTWYGEAIVLTVPGSERSYDLTGLKPGTEYSVRIFGVKGGNFSFPLSAIFTT
B17 had an RLU in assay [1] of 2.64e+06 RLU. The “hCD71:HSA” value in assay [2] worked out at 512.

B18: CD71-binding FN3 domain SEQ ID NO: 257 (designed binder)
chain: MSLPAPKNLVVSHVTEDSARLSWTAPDAAFDSFEIGYWENAYKGEAIVLTVPGSERSYDLTGLKPGTEYVVFIGGVKGGVWSVPLSAIFTT
B18 had an RLU in assay [1] of 2.83e+06 RLU. In addition, in assay [2], the “hCD71:HSA” value was 378.

B19: CD71-binding FN3 domain SEQ ID NO: 286 (designed binder)
chain: MSLPAPKNLVVSRVTEDSARLSWTAPDAAFDSFEIVYAEPVRFGEAIVLTVPGSERSYDLTGLKPGTEYWVQIGGVKGGEWSSPLSAIFTT
B19: the RLU in assay [1] is 2.66e+06 RLU. The “hCD71:HSA” value in assay [2] turned out to be 131.

B20: CD71-binding FN3 domain SEQ ID NO: 296 (designed binder)
chain: MSLPAPKNLVVSRVTEDSARLSWTAPDAAFDSFDIGYFELTWYGEAIVLTVPGSERSYDLTGLKPGTEYWVSIGGVKGGIWSSPLSAIFTT
In the case of B20, the RLU in assay [1] is 3.39e+06 RLU. Besides, the “hCD71:HSA” value in assay [2] was found to be 99.

B21: CD71-binding FN3 domain SEQ ID NO: 268 (designed binder)
chain: MSLPAPKNLVVSRVTEDSARLSWTAPDAAFDSFEIGYFENLYLGEAIVLTVPGSERSYDPTGLKPGTEYWVQIGGVKGGNWSAPLSAIFTT
Consider B21, for which the RLU in assay [1] amounted to 4.1e+06 RLU. In addition, the “hCD71:HSA” value in assay [2] turned out to be 133.

B22: CD71-binding FN3 domain SEQ ID NO: 254 (designed binder)
chain: MSLPAPKNLVVSRVTEDSARLSWTAPDAAFDSFEIGYFENLYLGEAIVLWVPGSERSYDLTGLKPGTEYWVQIGGVKGGNWSAPLSAIFTT
Take B22: the RLU in assay [1] amounted to 3.29e+06 RLU. Also, in assay [2], the “hCD71:HSA” value turned out to be 289.

B23: CD71-binding FN3 domain SEQ ID NO: 305 (designed binder)
chain: MSLPAPKNLVVSRVTEDSARLSWTAPDAAFDSFEIAYFEQTYTGEAIVLTVPGSERSYDLTGLKPGTEYWVQIGGVKGGNWSAPLSAIFTT
B23 registered an RLU in assay [1] of 3.62e+06 RLU. Further, in assay [2], the “hCD71:HSA” value was 315.

B24: CD71-binding FN3 domain SEQ ID NO: 250 (designed binder)
chain: MSLPAPKNLVVSRVTEDSARLSWTAPDAAFDSFEIGYFENLYLGEAIVLTVPGSERSYDLTGLKPGTEYWVQIGGVNGGNWSAPLSAIFTT
Turning to B24, the RLU in assay [1] is 3.41e+06 RLU. The “hCD71:HSA” value in assay [2] was 140.

B25: CD71-binding FN3 domain SEQ ID NO: 272 (designed binder)
chain: MSLPAPKNLVVSRVTEDSARLSWTAPDAAFDSFEIAYGEAAYDGEAIALLVPGSERSYDLTGLKPGTEYWVQIGGVKGGNWSAPLSAIFTT
Regarding B25, the RLU in assay [1] turned out to be 2.83e+06 RLU. The “hCD71:HSA” value in assay [2] came to 289.

B26: CD71-binding FN3 domain SEQ ID NO: 289 (designed binder)
chain: MSLPAPKNLVVSRVTEDSARLSWTAPDAAFDSFEIAYFEIAWLGEAIVLTVPGSERSYDLTGLKPGTEYWVQIGGVKGGAYSTPLSAIFTT
With B26, the RLU in assay [1] is 3.57e+06 RLU. In addition, the “hCD71:HSA” value in assay [2] is 77.

B27: CD71-binding FN3 domain SEQ ID NO: 275 (designed binder)
chain: MSLPAPKNLVVSRVTEDSARLSWTAPDAAFDSFEIGYFENLYLGEAIVLTVPGSERSYDLTGLKPGTEYWVQIGGVKGGNWSAPLVAEFTT
With B27, the RLU in assay [1] is 3.4e+06 RLU. The “hCD71:HSA” value in assay [2] was 322.

B28: CD71-binding FN3 domain SEQ ID NO: 274 (designed binder)
chain: MSLPAPKNLVVSRVTEDSARLSWTAPDAAFDSFEIVYWEQVGVGEAIVLTVPGSERSYDLTGLKPGTEYWVQIGGVKGGGFSEPLSAIFTT
B28 showed an RLU in assay [1] of 2.37e+06 RLU. In addition, in assay [2], the “hCD71:HSA” value came to 296.

B29: CD71-binding FN3 domain SEQ ID NO: 263 (designed binder)
chain: MSLPAPKNLVVSRVTEDSARLSWTAPDAAFDSFEIGYFENLYLGEAIVLTVPGSERSYDLTGLKPGTEYWVQIGGVKGGNWSSPLSAIFTT
Regarding B29, the RLU in assay [1] was found to be 3.32e+06 RLU. In addition, the “hCD71:HSA” value in assay [2] was 208.

B30: CD71-binding FN3 domain SEQ ID NO: 284 (designed binder)
chain: MSLPAPKNLVVSRVTEDSARLSWTAPDAAFDSFEIGYWENAYKGEAIVLTVPGSERSYDLTGLKPGTEYMVFIGGVKGGVWSVPLSAIFTT
B30: the RLU in assay [1] came out at 2.37e+06 RLU. For the same molecule, the “hCD71:HSA” value in assay [2] amounted to 195.

B31: CD71-binding FN3 domain SEQ ID NO: 298 (designed binder)
chain: MSLPAPKNLVVSRVTEDSARLSWTAPDAAFDSFEIGYFENLYLGEAIVLTVPGSERSYDLTGLKPGTEYWVQIGGVKGDNWSAPLSAIFTT
As for B31, the RLU in assay [1] was 3.67e+06 RLU. Moreover, the “hCD71:HSA” value in assay [2] turned out to be 287.

B32: CD71-binding FN3 domain SEQ ID NO: 301 (designed binder)
chain: MSLPAPKNLVVSRVTEDSARLSWTTPDAAFDSFEIGYFENLYLGEAIVLTVPGSERSYDLTGLKPGTEYWVQIGGVKGGNWSAPLSAIFTT
The molecule B32 gave an RLU in assay [1] of 3.19e+06 RLU. Besides, in assay [2], the “hCD71:HSA” value is 152.

B33: CD71-binding FN3 domain SEQ ID NO: 299 (designed binder)
chain: MSLPAPKNLVVSRVTEDSARLSWTAPDAAFDSFEIAYFENLYLGEAIVLTVPGSERSYDLTGLKPGTEYWVQIGGVKGGNWSAPLSAIFTT
B33 yielded an RLU in assay [1] of 3.26e+06 RLU. Also, the “hCD71:HSA” value in assay [2] was 375.
